Assay results published in patent publication US20110059093A1.

Molecular target: T1, Tau fragment Ser-Ile-Asp-Met-Val-Asp-Ser-Pro-Gln-Leu-Ala-Thr-Leu-Ala-Asp (SEQ ID NO:10) (human)
T1 sequence (peptide, biotinylated): SIDMVDSPQLATLAD
Assay: ELISA, biotinylated peptide on streptavidin plate, absorbance 405 nm-492 nm

Max O.D. Tau fragment binding: 30 mE
B1: Mab2.10.3 (anti-Tau pS422 antibody) (antibody, IgG1, V domains shown)
VH: EVQLVESGGDLVRPGGSLKLSCAASGFTFRTYGMSWVRQTADKRLEWVATISSGGTYTYYADNVRERFTISRDNARDTLYLQMSRLESDDTAMYYCTRRYGYDGGGSFDVWGAGTRVTVSS
VL: EIVMTQAAPSVPVTPGESASISCRSNKSLLHSNGNTYLCWFLQRPGQSPQLLIYRMSTLAPGVPDRFSGSGSGTAFTLRISRLEAEDVGVYYCMQHIEYPLTFGAGTKLELK
